Laboratory results: patent US20110152183A1 (Novo Nordisk, published 2011)
Where a chain is given by its changes, count along the chain named. Bridge positions count the residues as written; N and C are the ends.

T1: Amylin 3(a) receptor (human calcitonin receptor (CTa) coexpressed with RAMP-3) on BHK570 cells (human, UniProt P30988 25-474)
T1 sequence (P30988 whole entry, looked up): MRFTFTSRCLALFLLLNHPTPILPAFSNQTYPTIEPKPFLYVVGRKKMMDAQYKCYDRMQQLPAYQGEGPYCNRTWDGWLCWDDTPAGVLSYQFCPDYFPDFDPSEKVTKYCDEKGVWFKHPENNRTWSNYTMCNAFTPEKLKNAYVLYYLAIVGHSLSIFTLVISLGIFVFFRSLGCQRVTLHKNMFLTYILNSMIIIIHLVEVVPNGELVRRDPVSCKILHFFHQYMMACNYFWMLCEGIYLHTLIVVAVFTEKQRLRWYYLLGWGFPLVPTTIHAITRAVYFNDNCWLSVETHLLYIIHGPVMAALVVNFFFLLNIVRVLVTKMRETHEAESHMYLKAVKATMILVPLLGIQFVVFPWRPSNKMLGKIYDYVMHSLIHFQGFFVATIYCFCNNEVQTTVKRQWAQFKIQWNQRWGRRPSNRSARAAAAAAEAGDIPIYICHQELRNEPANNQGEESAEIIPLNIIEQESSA
T1 sequence (O60896 whole entry, looked up): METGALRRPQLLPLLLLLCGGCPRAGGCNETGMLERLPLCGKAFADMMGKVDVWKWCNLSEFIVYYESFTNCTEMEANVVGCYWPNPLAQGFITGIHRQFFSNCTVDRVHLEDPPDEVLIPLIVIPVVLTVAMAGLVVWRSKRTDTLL

B1: Amylin (1-8)-[Arg11,Arg18]sCT (9-27)-amylin (33-37) (peptide)
peptide: KCNTATCALGRLSQELHRLQTYPRTNTGSNTY
HELM: PEPTIDE1{K.C.N.T.A.T.C.A.L.G.R.L.S.Q.E.L.H.R.L.Q.T.Y.P.R.T.N.T.G.S.N.T.Y.[am]}$PEPTIDE1,PEPTIDE1,2:R3-7:R3$$$V2.0; N-terminus assumed
SMILES: CC(C)C[C@H](NC(=O)[C@H](C)NC(=O)[C@@H]1CSSC[C@H](NC(=O)[C@@H](N)CCCCN)C(=O)N[C@@H](CC(N)=O)C(=O)N[C@@H]([C@@H](C)O)C(=O)N[C@@H](C)C(=O)N[C@@H]([C@@H](C)O)C(=O)N1)C(=O)NCC(=O)N[C@@H](CCCNC(=N)N)C(=O)N[C@@H](CC(C)C)C(=O)N[C@@H](CO)C(=O)N[C@@H](CCC(N)=O)C(=O)N[C@@H](CCC(=O)O)C(=O)N[C@@H](CC(C)C)C(=O)N[C@@H](Cc1c[nH]cn1)C(=O)N[C@@H](CCCNC(=N)N)C(=O)N[C@@H](CC(C)C)C(=O)N[C@@H](CCC(N)=O)C(=O)N[C@H](C(=O)N[C@@H](Cc1ccc(O)cc1)C(=O)N1CCC[C@H]1C(=O)N[C@@H](CCCNC(=N)N)C(=O)N[C@H](C(=O)N[C@@H](CC(N)=O)C(=O)N[C@H](C(=O)NCC(=O)N[C@@H](CO)C(=O)N[C@@H](CC(N)=O)C(=O)N[C@H](C(=O)N[C@@H](Cc1ccc(O)cc1)C(N)=O)[C@@H](C)O)[C@@H](C)O)[C@@H](C)O)[C@@H](C)O
B2: [His1]amylin (1-8)-[His11,His18,His24]sCT (9-27)-amylin (33-37) (peptide)
peptide: B1 peptide with K1H, R11H, R18H, R24H
HELM: PEPTIDE1{H.C.N.T.A.T.C.A.L.G.H.L.S.Q.E.L.H.H.L.Q.T.Y.P.H.T.N.T.G.S.N.T.Y.[am]}$PEPTIDE1,PEPTIDE1,2:R3-7:R3$$$V2.0; N-terminus assumed
SMILES: CC(C)C[C@H](NC(=O)[C@H](C)NC(=O)[C@@H]1CSSC[C@H](NC(=O)[C@@H](N)Cc2c[nH]cn2)C(=O)N[C@@H](CC(N)=O)C(=O)N[C@@H]([C@@H](C)O)C(=O)N[C@@H](C)C(=O)N[C@@H]([C@@H](C)O)C(=O)N1)C(=O)NCC(=O)N[C@@H](Cc1c[nH]cn1)C(=O)N[C@@H](CC(C)C)C(=O)N[C@@H](CO)C(=O)N[C@@H](CCC(N)=O)C(=O)N[C@@H](CCC(=O)O)C(=O)N[C@@H](CC(C)C)C(=O)N[C@@H](Cc1c[nH]cn1)C(=O)N[C@@H](Cc1c[nH]cn1)C(=O)N[C@@H](CC(C)C)C(=O)N[C@@H](CCC(N)=O)C(=O)N[C@H](C(=O)N[C@@H](Cc1ccc(O)cc1)C(=O)N1CCC[C@H]1C(=O)N[C@@H](Cc1c[nH]cn1)C(=O)N[C@H](C(=O)N[C@@H](CC(N)=O)C(=O)N[C@H](C(=O)NCC(=O)N[C@@H](CO)C(=O)N[C@@H](CC(N)=O)C(=O)N[C@H](C(=O)N[C@@H](Cc1ccc(O)cc1)C(N)=O)[C@@H](C)O)[C@@H](C)O)[C@@H](C)O)[C@@H](C)O

Key:
[1] = biological target: T1, Amylin 3(a) receptor (human calcitonin …); experiment: cell-based or functional assay
[2] = biological target: Amylin 3(a) receptor (human calcitonin receptor (CTa) coexpressed with RAMP-3) on BHK570 cells (human, UniProt P30988 25-474); experiment: cell-based or functional assay; remark: listed apart in the source

| Binder | EC50 (pM) in luciferase assay [1] [pM] | EC50 (pM) in luciferase assay [2] [pM] |
| --- | --- | --- |
| {4‑carboxy‑4‑(19-carboxy-nonadecanoylamino)butyryl}-KCNTATCALGRLSQELHRLQTYPRTNTGSNTY-NH2 (disulfide 2-7) | 50 | – |
| B1 | 3 | – |
| B2 | – | 10 |
